Patent publication EP4692127A1 (Kangma-Healthcode (Shanghai) Biotech Co., Ltd, dated 2026)

Target: recombinant human PD-1 protein (human, UniProt Q15116 25-167)
Experiment: indirect ELISA, recombinant human PD-1 coated, HRP anti-human IgG (Fab specific), 4-parameter fit

Chain of recombinant human PD-1 protein (Q15116 25-167 limits assumed): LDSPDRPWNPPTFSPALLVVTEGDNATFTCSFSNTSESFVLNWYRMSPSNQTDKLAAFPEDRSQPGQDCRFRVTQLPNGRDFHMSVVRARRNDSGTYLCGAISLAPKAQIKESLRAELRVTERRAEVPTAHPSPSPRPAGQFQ

EC50: 0.0143 µg/mL
B1: Commercially available Tislelizumab (antibody, human IgG4 S228P, kappa)
heavy: QVQLQESGPGLVKPSETLSLTCTVSGFSLTSYGVHWIRQPPGKGLEWIGVIYADGSTNYNPSLKSRVTISKDTSKNQVSLKLSSVTAADTAVYYCARAYGNYWYIDVWGQGTTVTVSSASTKGPSVFPLAPCSRSTSESTAALGCLVKDYFPEPVTVSWNSGALTSGVHTFPAVLQSSGLYSLSSVVTVPSSSLGTKTYTCNVDHKPSNTKVDKRVESKYGPPCPPCPAPPVAGGPSVFLFPPKPKDTLMISRTPEVTCVVVAVSQEDPEVQFNWYVDGVEVHNAKTKPREEQFNSTYRVVSVLTVVHQDWLNGKEYKCKVSNKGLPSSIEKTISKAKGQPREPQVYTLPPSQEEMTKNQVSLTCLVKGFYPSDIAVEWESNGQPENNYKTTPPVLDSDGSFFLYSKLTVDKSRWQEGNVFSCSVMHEALHNHYTQKSLSLSLGK
light: DIVMTQSPDSLAVSLGERATINCKSSESVSNDVAWYQQKPGQPPKLLINYAFHRFTGVPDRFSGSGYGTDFTLTISSLQAEDVAVYYCHQAYSSPYTFGQGTKLEIKRTVAAPSVFIFPPSDEQLKSGTASVVCLLNNFYPREAKVQWKVDNALQSGNSQESVTEQDSKDSTYSLSSTLTLSKADYEKHKVYACEVTHQGLSSPVTKSFNRGEC
